Among the data in PMC3035906 (Cell Death & Disease, 2010) are Kd, koff and kon values, retold here.

Positions count from the first letter of the chain named. Numbers in names are those of the source.

The target in this experiment is DR4-Ig (death receptor 4, Ig fusion) (UniProt O00220). The experiment in a line: SPR. For orientation: Surface plasmon resonance follows binding to a sensor surface in real time, without labels.
DR4-Ig (death receptor 4, Ig fusion), sequence (O00220 24-239): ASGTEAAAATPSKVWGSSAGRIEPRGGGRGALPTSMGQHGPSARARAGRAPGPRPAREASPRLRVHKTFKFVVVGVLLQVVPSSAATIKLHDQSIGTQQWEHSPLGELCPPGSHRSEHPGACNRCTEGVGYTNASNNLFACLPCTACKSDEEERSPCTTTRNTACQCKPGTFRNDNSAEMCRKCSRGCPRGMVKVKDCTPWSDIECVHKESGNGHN

B1: rhTRAIL variant 4C7 (G131R/R149I/S159R/N199R/K201H/S215D) (ligand)
chain: VRERGPQRVAAHITGTRRRSNTLSSPNSKNEKALGIKINSWESSRRGHSFLSNLHLRNGELVIHEKGFYYIYSQTYFRFQEEIKERTHNDKQMVQYIYKYTDYPDPILLMKSARNSCWSKDAEYGLYSIYQGGIFELKENDRIFVSVTNEHLIDMDHEASFFGAFLVG
Regarding B1, the dissociation constant (Kd) (usually the constant that tells how readily two partners part at equilibrium) is 21 ± 10 pM; the koff (in general, the first-order rate constant of dissociation) came out at 5.9e-05 s⁻¹; the kon (usually the rate constant with which the complex forms) was 2.81e+06 M⁻¹ s⁻¹.

B2: rhTRAIL variant 4C9 (G131R/R149I/S159R/S215D) (ligand)
chain: B1 chain with R86N, H88K
The molecule B2 returned an equilibrium dissociation constant (Kd) of 25 ± 20 pM, a koff of 5.8e-05 s⁻¹ and a kon of 2.35e+06 M⁻¹ s⁻¹.
